Laboratory results as given in article PMC4330386 (Nucleic Acids Research, 2015).
One block for each binder: values may come before it.

B2: GST-Rad27 (natural protein, yeast, UniProt P26793 1-382, looked up)
chain: MGIKGLNAIISEHVPSAIRKSDIKSFFGRKVAIDASMSLYQFLIAVRQQDGGQLTNEAGETTSHLMGMFYRTLRMIDNGIKPCYVFDGKPPDLKSHELTKRSSRRVETEKKLAEATTELEKMKQERRLVKVSKEHNEEAQKLLGLMGIPYIIAPTEAEAQCAELAKKGKVYAAASEDMDTLCYRTPFLLRHLTFSEAKKEPIHEIDTELVLRGLDLTIEQFVDLCIMLGCDYCESIRGVGPVTALKLIKTHGSIEKIVEFIESGESNNTKWKIPEDWPYKQARMLFLDPEVIDGNEINLKWSPPKEKELIEYLCDDKKFSEERVKSGISRLKKGLKSGIQGRLDGFFQVVPKTKEQLAAAAKRAQENKKLNKNKNKVTKGRR

Assays:
Test in all cases: cell-based or functional assay
[1] = molecular target: B2
[2] = molecular target: T1, Mus81_(Δ21–22) of Mus81_(Δ21–22)–Mms4_(Δ40N) (S. cerevisiae, UniProt Q04149 1-632, Δ21–22)
T1 sequence (looked up): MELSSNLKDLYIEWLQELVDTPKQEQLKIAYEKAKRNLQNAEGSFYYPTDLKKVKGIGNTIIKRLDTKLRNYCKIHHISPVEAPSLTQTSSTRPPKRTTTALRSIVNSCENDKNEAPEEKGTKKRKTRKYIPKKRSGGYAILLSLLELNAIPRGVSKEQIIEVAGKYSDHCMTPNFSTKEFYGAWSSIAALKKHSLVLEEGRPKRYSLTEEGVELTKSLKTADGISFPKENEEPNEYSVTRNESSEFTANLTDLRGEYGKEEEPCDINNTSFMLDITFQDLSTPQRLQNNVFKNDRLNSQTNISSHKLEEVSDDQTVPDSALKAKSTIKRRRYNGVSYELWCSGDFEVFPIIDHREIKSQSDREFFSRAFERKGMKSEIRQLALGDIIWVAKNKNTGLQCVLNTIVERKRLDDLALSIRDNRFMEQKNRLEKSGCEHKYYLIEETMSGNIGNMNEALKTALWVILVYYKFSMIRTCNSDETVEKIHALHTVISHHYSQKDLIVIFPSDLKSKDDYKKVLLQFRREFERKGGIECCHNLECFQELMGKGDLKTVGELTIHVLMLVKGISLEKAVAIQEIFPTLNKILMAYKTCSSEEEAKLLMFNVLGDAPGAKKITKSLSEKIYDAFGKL

[3] = molecular target: T2, Mus81_(Δ21–24) of Mus81_(Δ21–24)–Mms4_(Δ40N) (S. cerevisiae, UniProt Q04149 1-632, Δ21–24)
T2 sequence (looked up): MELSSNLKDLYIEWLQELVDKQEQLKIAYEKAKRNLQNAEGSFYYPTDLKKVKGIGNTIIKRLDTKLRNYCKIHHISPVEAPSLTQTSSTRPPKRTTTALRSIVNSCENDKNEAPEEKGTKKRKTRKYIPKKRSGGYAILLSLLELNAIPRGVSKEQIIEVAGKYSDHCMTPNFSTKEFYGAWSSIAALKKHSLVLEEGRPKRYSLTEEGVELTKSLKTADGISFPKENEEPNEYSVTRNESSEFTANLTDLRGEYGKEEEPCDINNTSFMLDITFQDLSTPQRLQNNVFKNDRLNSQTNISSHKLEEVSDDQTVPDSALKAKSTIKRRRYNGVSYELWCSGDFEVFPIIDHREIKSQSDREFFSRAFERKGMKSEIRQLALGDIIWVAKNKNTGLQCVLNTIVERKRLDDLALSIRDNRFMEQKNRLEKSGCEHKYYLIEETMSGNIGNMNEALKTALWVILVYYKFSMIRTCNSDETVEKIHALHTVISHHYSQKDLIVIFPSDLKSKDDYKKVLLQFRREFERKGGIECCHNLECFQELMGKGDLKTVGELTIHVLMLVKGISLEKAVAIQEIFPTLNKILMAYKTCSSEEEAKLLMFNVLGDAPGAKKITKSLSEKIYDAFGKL

stimulation of Rad27 (0.1 fmol) cleavage of 5′DF substrate by the Mus81–Mms4 complex (0, 25, 50 fmol; ∼2–4 fold told of the Mus81 complexes) [1]: 2 to 4 fold
B1: Mms4 of the wild-type Mus81–Mms4 complex (natural protein, budding yeast, UniProt P38257 1-691, looked up)
chain: MSQIVDFVEDKDSRNDASIQIIDGPSNVEIIALSESMDQDECKRAHVSSAEMIPSSPQRKSVSNDVENVDLNKSIELSAPFFQDISISKLDDFSTTVNSIIDSSLRNENNAKGNAKKLLDDLISDEWSADLESSGKKHNKSQYNLRDIAEKWGVQSLKNPEPIAVDCEYKTQGIGKTNSDISDSPKSQIGAADILFDFPLSPVKHENPTEEKHNSIANENSSPDNSLKPAGKQNHGEDGTSMAKRVYNKGEDEQEHLPKGKKRTIALSRTLINSTKLPDTVELNLSKFLDSSDSITTDVLSTPAKGSNIVRTGSQPIFSNANCFQEAKRSKTLTAEDPKCTKNTAREVSQLENYIAYGQYYTREDSKNKIRHLLKENKNAFKRVNQIYRDNIKARSQMIIEFSPSLLQLFKKGDSDLQQQLAPAVVQSSYNDSMPLLRFLRKCDSIYDFSNDFYYPCDPKIVEENVLILYYDAQEFFEQYTSQKKELYRKIRFFSKNGKHVILILSDINKLKRAIFQLENEKYKARVEQRLSGTEEALRPRSKKSSQVGKLGIKKFDLEQRLRFIDREWHVKIHTVNSHMEFINSLPNLVSLIGKQRMDPAIRYMKYAHLNVKSAQDSTETLKKTFHQIGRMPEMKANNVVSLYPSFQSLLEDIEKGRLQSDNEGKYLMTEAVEKRLYKLFTCTDPNDTIE

Binder: B2
extent of stimulation by Rad27 of the endonuclease activity of Mus81_(Δ21–22)–Mms4_(Δ40N) on 3′F substrate, over increasing amounts of Rad27 (∼5–12-fold) [2]: ~12 fold
extent of stimulation by Rad27 of the endonuclease activity of Mus81_(Δ21–24)–Mms4_(Δ40N) on 3′F substrate, over increasing amounts of Rad27 (∼3–6-fold) [3]: ~6 fold

stimulation of Rad27 (0.1 fmol) cleavage of 5′DF substrate by the Mus81–Mms4_(Δ40N) and Mus81_(Δ120N)–Mms4_(Δ40N) complexes (0, 25, 50 fmol; ∼2–4 fold told of the Mus81 complexes) [1]: 2 to 4 fold
B3: Mms4_(Δ40N) (domain or fragment, budding yeast, UniProt P38257 41-691, looked up)
chain: ECKRAHVSSAEMIPSSPQRKSVSNDVENVDLNKSIELSAPFFQDISISKLDDFSTTVNSIIDSSLRNENNAKGNAKKLLDDLISDEWSADLESSGKKHNKSQYNLRDIAEKWGVQSLKNPEPIAVDCEYKTQGIGKTNSDISDSPKSQIGAADILFDFPLSPVKHENPTEEKHNSIANENSSPDNSLKPAGKQNHGEDGTSMAKRVYNKGEDEQEHLPKGKKRTIALSRTLINSTKLPDTVELNLSKFLDSSDSITTDVLSTPAKGSNIVRTGSQPIFSNANCFQEAKRSKTLTAEDPKCTKNTAREVSQLENYIAYGQYYTREDSKNKIRHLLKENKNAFKRVNQIYRDNIKARSQMIIEFSPSLLQLFKKGDSDLQQQLAPAVVQSSYNDSMPLLRFLRKCDSIYDFSNDFYYPCDPKIVEENVLILYYDAQEFFEQYTSQKKELYRKIRFFSKNGKHVILILSDINKLKRAIFQLENEKYKARVEQRLSGTEEALRPRSKKSSQVGKLGIKKFDLEQRLRFIDREWHVKIHTVNSHMEFINSLPNLVSLIGKQRMDPAIRYMKYAHLNVKSAQDSTETLKKTFHQIGRMPEMKANNVVSLYPSFQSLLEDIEKGRLQSDNEGKYLMTEAVEKRLYKLFTCTDPNDTIE
